Reference: EP4631972A1, “SITE-SPECIFIC COUPLED PEGYLATED INTERLEUKIN-2 MUTANT WITH RECEPTOR AFFINITY PREFERENCE AND USE THEREOF” (priority 2022, dated 2024)
Numbered stars: 1 amine (or outer) side, 2 acyl side, 3 side chain; on linkers, the order of the positions; unused ones are H or OH. Square brackets hold non-standard residues; d marks the D form. Prk = N-ε-propargyloxycarbonyl-L-lysine, C#CCOC(=O)NCCCC[C@H](N[*:1])C(=O)[*:2]; PEG60k = one 60 kD PEG attached to the residue; Phe(4-Ac) = CC(=O)c1ccc(C[C@H](N)C(=O)O)cc1

T1: IL-2Rαβγ triple receptor (UniProt P01589 22-272; P14784 27-551; P31785 23-369)
T1 sequence (looked up) 1: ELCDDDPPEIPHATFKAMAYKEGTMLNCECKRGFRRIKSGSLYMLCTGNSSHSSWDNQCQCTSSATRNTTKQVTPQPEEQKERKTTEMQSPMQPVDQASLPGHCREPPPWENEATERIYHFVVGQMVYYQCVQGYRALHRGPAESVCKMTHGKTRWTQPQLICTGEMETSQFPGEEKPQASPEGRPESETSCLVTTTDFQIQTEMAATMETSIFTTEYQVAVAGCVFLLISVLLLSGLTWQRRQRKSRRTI
T1 sequence (looked up) 2: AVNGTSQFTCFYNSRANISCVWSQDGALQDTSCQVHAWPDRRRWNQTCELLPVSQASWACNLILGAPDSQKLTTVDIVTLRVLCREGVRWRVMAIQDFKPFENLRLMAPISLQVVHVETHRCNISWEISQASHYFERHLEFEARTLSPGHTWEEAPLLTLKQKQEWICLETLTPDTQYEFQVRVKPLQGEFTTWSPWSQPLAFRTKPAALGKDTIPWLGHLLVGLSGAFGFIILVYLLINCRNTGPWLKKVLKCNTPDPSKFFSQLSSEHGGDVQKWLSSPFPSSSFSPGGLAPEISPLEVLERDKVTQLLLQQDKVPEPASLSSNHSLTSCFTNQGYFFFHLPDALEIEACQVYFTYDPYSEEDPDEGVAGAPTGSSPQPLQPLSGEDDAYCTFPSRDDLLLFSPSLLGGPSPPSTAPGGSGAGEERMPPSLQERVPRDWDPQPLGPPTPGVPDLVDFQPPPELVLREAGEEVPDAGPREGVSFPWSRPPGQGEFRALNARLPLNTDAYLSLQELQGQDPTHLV
T1 sequence (looked up) 3: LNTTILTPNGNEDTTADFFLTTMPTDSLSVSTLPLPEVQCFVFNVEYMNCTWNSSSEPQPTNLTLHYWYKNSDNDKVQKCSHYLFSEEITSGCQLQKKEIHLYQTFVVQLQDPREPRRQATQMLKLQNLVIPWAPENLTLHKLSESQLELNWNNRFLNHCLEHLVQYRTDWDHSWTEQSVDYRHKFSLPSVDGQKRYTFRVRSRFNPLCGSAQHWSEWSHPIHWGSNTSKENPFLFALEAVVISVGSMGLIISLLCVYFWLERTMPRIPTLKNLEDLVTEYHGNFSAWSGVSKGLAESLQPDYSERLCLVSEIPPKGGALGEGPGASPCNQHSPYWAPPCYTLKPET

T2: IL-2βγ dual receptor (Homo sapiens, UniProt P14784+P31785)
T2 construct: Uniprot P14784 1Met-551Val was constructed into plasmid pcDNA3.1(+); Uniprot P31785 1Met-551Thr was constructed into plasmid pcDNA3.1/zeo; expressed in transfected cells; host or cells: 293EC18 cells, transient co-transfection with pCMV/JAK3 and PGL4.52/STAT5RE
T2 sequence (P14784 27-551): T1 sequence (looked up) 2
T2 sequence (P31785 23-369): T1 sequence (looked up) 3

B1: 60k-1PEG-IL2-N88R-N77pAcF (ligand)
chain: APTSSSTKKTQLQLEHLLLDLQMILNGINNYKNPKLTRMLTFKFYMPKKATELKHLQCLEEELKPLEEVLNLAQSK[Phe(4-Ac)](PEG60k)FHLRPRDLISRINVIVLELKGSETTFMCEYADETATIVEFLNRWITFSQSIISTLT
B2: 20k-1PEG-IL2-N88R-N77pAcF (ligand)
chain: APTSSSTKKTQLQLEHLLLDLQMILNGINNYKNPKLTRMLTFKFYMPKKATELKHLQCLEEELKPLEEVLNLAQSK[Phe(4-Ac)](PEG‑hydroxylamine 20 kDa)FHLRPRDLISRINVIVLELKGSETTFMCEYADETATIVEFLNRWITFSQSIISTLT
modifications: not fully specified
B3: 60k-1PEG-IL2-N88R-N33pAcF (ligand)
chain: APTSSSTKKTQLQLEHLLLDLQMILNGINNYK[Phe(4-Ac)](PEG60k)PKLTRMLTFKFYMPKKATELKHLQCLEEELKPLEEVLNLAQSKNFHLRPRDLISRINVIVLELKGSETTFMCEYADETATIVEFLNRWITFSQSIISTLT
B4: 40k-1PEG-IL2-N88R-N33pAcF (ligand)
chain: APTSSSTKKTQLQLEHLLLDLQMILNGINNYK[Phe(4-Ac)](PEG‑hydroxylamine 40 kDa)PKLTRMLTFKFYMPKKATELKHLQCLEEELKPLEEVLNLAQSKNFHLRPRDLISRINVIVLELKGSETTFMCEYADETATIVEFLNRWITFSQSIISTLT
modifications: not fully specified
B5: 20k-1PEG-IL2-N88R-N33pAcF (ligand)
chain: APTSSSTKKTQLQLEHLLLDLQMILNGINNYK[Phe(4-Ac)](PEG‑hydroxylamine 20 kDa)PKLTRMLTFKFYMPKKATELKHLQCLEEELKPLEEVLNLAQSKNFHLRPRDLISRINVIVLELKGSETTFMCEYADETATIVEFLNRWITFSQSIISTLT
modifications: not fully specified
B6: 40k-1PEG-IL2-N88R-N77pAcF (ligand)
chain: APTSSSTKKTQLQLEHLLLDLQMILNGINNYKNPKLTRMLTFKFYMPKKATELKHLQCLEEELKPLEEVLNLAQSK[Phe(4-Ac)](PEG‑hydroxylamine 40 kDa)FHLRPRDLISRINVIVLELKGSETTFMCEYADETATIVEFLNRWITFSQSIISTLT
modifications: not fully specified
B7: 80k-1PEG-IL2-N88R-S75C: IL-2 mutant N88R, S75C with one 80k PEG conjugated to cysteine 75 (conjugate)
chain: APTSSSTKKTQLQLEHLLLDLQMILNGINNYKNPKLTRMLTFKFYMPKKATELKHLQCLEEELKPLEEVLNLAQC(PEG 80 kDa)KNFHLRPRDLISRINVIVLELKGSETTFMCEYADETATIVEFLNRWITFSQSIISTLT
B8: 60k-1PEG-IL2-N88R-N77Prk (ligand)
chain: APTSSSTKKTQLQLEHLLLDLQMILNGINNYKNPKLTRMLTFKFYMPKKATELKHLQCLEEELKPLEEVLNLAQSK[Prk](PEG 60 kDa)FHLRPRDLISRINVIVLELKGSETTFMCEYADETATIVEFLNRWITFSQSIISTLT
B9: 20k-1PEG-IL2-N88R-N33Prk (ligand)
chain: APTSSSTKKTQLQLEHLLLDLQMILNGINNYK[Prk](PEG‑azide 20 kDa)PKLTRMLTFKFYMPKKATELKHLQCLEEELKPLEEVLNLAQSKNFHLRPRDLISRINVIVLELKGSETTFMCEYADETATIVEFLNRWITFSQSIISTLT
B10: 20k-1PEG-IL2-N88R-N77Prk (ligand)
chain: APTSSSTKKTQLQLEHLLLDLQMILNGINNYKNPKLTRMLTFKFYMPKKATELKHLQCLEEELKPLEEVLNLAQSK[Prk](PEG‑azide 20 kDa)FHLRPRDLISRINVIVLELKGSETTFMCEYADETATIVEFLNRWITFSQSIISTLT
B11: 40k-1PEG-IL2-N88R-N77Prk (ligand)
chain: APTSSSTKKTQLQLEHLLLDLQMILNGINNYKNPKLTRMLTFKFYMPKKATELKHLQCLEEELKPLEEVLNLAQSK[Prk](PEG‑azide 40 kDa)FHLRPRDLISRINVIVLELKGSETTFMCEYADETATIVEFLNRWITFSQSIISTLT
B12: 40k-1PEG-IL2-N88R-N33Prk (ligand)
chain: APTSSSTKKTQLQLEHLLLDLQMILNGINNYK[Prk](PEG‑azide 40 kDa)PKLTRMLTFKFYMPKKATELKHLQCLEEELKPLEEVLNLAQSKNFHLRPRDLISRINVIVLELKGSETTFMCEYADETATIVEFLNRWITFSQSIISTLT
B13: 60k-1PEG-IL2-N88R-N33Prk (ligand)
chain: APTSSSTKKTQLQLEHLLLDLQMILNGINNYK[Prk](PEG 60 kDa)PKLTRMLTFKFYMPKKATELKHLQCLEEELKPLEEVLNLAQSKNFHLRPRDLISRINVIVLELKGSETTFMCEYADETATIVEFLNRWITFSQSIISTLT

Molecular target: T1, IL-2Rαβγ triple receptor
Assay: cell-based or functional assay
Conditions: not given

Activation of IL-2αβγ triple receptor EC50 (STAT5 luciferase reporter gene assay)	Molecule
5.12 nM	B1
0.5 nM	B2
9.21 nM	B3
3.69 nM	B4
0.319 nM	B5
1.92 nM	B6

Molecular target: T2, IL-2βγ dual receptor
Assay: STAT5 reporter gene assay, activation of IL-2βγ dual receptor in 293EC18/βγ/JAK3/STAT5 cells
Assay type: cell-based
Conditions: Figure 1, concentration of 65.2 nM
Description: Since the binding of IL-2 to the β and γ subunits of its receptor induces STAT5 phosphorylation, which subsequently leads to dimerization and translocation into the nucleus to promote target gene transcription, this example evaluates the ability of the mutant IL-2 polypeptides to induce signaling through the IL-2 receptor by measuring STAT5 phosphorylation.
Adherent 293EC18 cells were cultured to about 90% confluence using conventional methods. After trypsin digestion, the cells were resuspended in cell culture medium to 4×10^5 cells/ml and 50 µl/well were added to two 96-well cell culture plates. After incubation at 37°C for 48 h, the supernatant was aspirated and fresh culture medium was added. According to the manufacturer's method, four plasmids, pcDNA3.1(+)/CD122 (constructed by Nanjing Novoacine Biotechnology Co., Ltd, Uniprot P14784 1Met-551Val was constructed into plasmid pcDNA3.1(+)), pcDNA3.1/puro/CD132 (constructed by Nanjing Novoacine Biotechnology Co., Ltd, Uniprot P31785 1Met-551Thr was constructed into plasmid pcDNA3.1/zeo), pCMV/JAK3 (Sino Biological), and PGL4.52/STAT5RE (Promega) were transiently transfected into 293EC18 cells using a cationic transfection reagent (ExFect Transfection Reagent, Vazyme). The obtained cells were named 293EC18/βγ/JAK3/STAT5 cells. Alternatively, five plasmids, pcDNA3.1/zeo/CD25 (constructed by Nanjing Novoacine Biotechnology Co., Ltd, Uniprot P01589 1Met-551Ile constructed into plasmid pcDNA3.1/zeo), pcDNA3.1(+)/CD122 (constructed by Nanjing Novoacine Biotechnology Co., Ltd, Uniprot P14784 1Met-551Val constructed into plasmid pcDNA3.1(+)), pcDNA3.1/puro/CD132 (constructed by Nanjing Novoacine Biotechnology Co., Ltd, UniprotP31785 1Met-551Thr constructed into plasmid pcDNA3.1/zeo), pCMV/JAK3 (Sino Biological), and PGL4.52/STAT5RE (Promega) were transiently transferred into 293EC18 cells, and the obtained cells were named 293EC18/αβγ/JAK3/STAT5 cells. The transfected cells were incubated at 37°C and 5% CO2 for another 6 h.
Each IL2 mutant was diluted 4-fold in a gradient manner using PBS buffer, with a total of 11 dilutions and a starting concentration of 65.2 nM. In the above cell culture plates, 50 µl/well of each of the serially diluted IL2 mutant samples was added in duplicate. Then, the cell culture plate was placed in an incubator at 37°C and 5% CO2 for overnight culture. The cell culture plates were kept at room temperature for 20 ± 5 minutes to equilibrate the plates to room temperature. Bio-Lite Luciferase Assay System reagents that have been mixed and equilibrated to room temperature were added to the cell culture plates to be tested at 100 µl/well, placed on a microplate shaker at 450 rpm to mix for 2 minutes, then allowed to stand at room temperature for 3 minutes, and the chemiluminescence value was detected with an enzyme plate reader.
The logarithm of the final concentration of each IL-2 mutant sample was used as the X-axis, and the chemiluminescence detection results were used as the Y-axis for plotting. Data were analyzed using the four-parameter logistic regression model in GraphPad Prism 9. Table 2 EC50 values for the activation of the IL-2αβγ triple receptor by PEG-IL-2 mutants as determined by a reporter gene assay.
According to the method of Example 3, each polyethylene glycol-modified mutant obtained in this example was assessed for the binding preference to the IL2 receptors by a reporter assay. Table 4 EC50 values for the activation of the IL-2αβγ triple receptor by PEG-IL-2 mutants as determined by a reporter gene assay.
Referring to Example 3, the phosphorylation of STAT5 was used to evaluate the ability of the PEG-modified IL-2 mutants having a non-natural amino acid mutation prepared in Example 14 to induce signal transduction via the IL-2 receptor. […]

activation effect on the IL-2Rβγ dual receptor compared with control IL-2 N88R	Molecule
lower activation effects	B7

Same assay, conditions: Figure 2, all concentrations

activation effect on / affinity to IL-2Rβγ dual receptor compared with control IL-2 N88R	Molecule
further reduced the affinity to IL-2Rβγ	B7

Molecular target: T1, IL-2Rαβγ triple receptor
Assay: cell-based or functional assay
Conditions: not given
Remark: another data set of the same source

Activation of IL-2αβγ receptor EC50 (STAT5 luciferase reporter gene assay)	Molecule
0.417 nM	B8
0.323 nM	B9
0.361 nM	B10
0.517 nM	B11
0.443 nM	B12
0.368 nM	B13
